{"source": "paper PMC6402204", "about": "“Production Optimization of an Active β-Galactosidase of Bifidobacterium animalis in Heterologous Expression Systems” (BioMed Research International, 2019)", "proteins": {"B1": {"name": "bG42-106 (Bifidobacterium animalis subsp. lactis) (protein)", "chain": "MSASTQHRAHRWPQPLPGNDRKIWFGADYNPDQWPEDVQDEDIRLMKQAGVNIVSLAIFSWANIETSDGNFEFDWLDRVIDKLYKAGIAVDLASATASPPMWLTSAHPEVLRRDEQGHVIWPGARQHWRPTSPTFRTYALRLCREMAEHYKDNPAIVSWHVGNEYGCHNYFDYSDDAVQAFREWCRDRYGTIDKVNAAWGTNFWSQRLNSFEEILPPRYVGGEGNFTNPGRLLDFKHFCSDALKEFFCAERDVLSEVTPNIPLTTNFMVSASQNTLDYDDWAHEVDFVSNDHYFTPGSWHIDELAYSASLVDGISRKKPWFLMEQSTSAVNWREINPRKEPGELIRDSMLHLAMGADAICYFQWRQSRSGAEKFHSAMLPLAGEHSQIYRDVCALGADLDTLSDAGILRSKLSKARVAIVQDIQSEWATEHTATPTQHIREWTEPLDWFAAFANRGVTADVTPIHAQWDTYDAVVIPCVYLFSEEMAERLRTFVRNGGKAFVTYYSALADEHDRLHTEGWPGLIGDVVGVRIEEHCPLGTLFPGMLDHLDVSNGTVVHDLADVIDAIADDTTVLATFEADPATGMDGRAAITVHPYHEGGVAYIAGKLGRDGISQSLPEICAALGFELDADPRAGDVLRVVREQEDGAIFEFLFNRTRNTVTADRPAGDMLICSLATDSTDKVTLEPNGVLAFRR", "notes": "full-length, 695 residues, 78 kDa calculated, no signal peptide; C-terminal His6 (pET-30a(+)), E. coli BL21(DE3), Ni-NTA purified; homodimer by native PAGE (~180 kDa)"}}, "substrate": "O=[N+]([O-])c1ccccc1O[C@@H]1O[C@H](CO)[C@H](O)[C@H](O)[C@H]1O", "test": "purified protein", "assay_type": "biochemical, Bifidobacterium animalis", "conditions": "pH 6.0, 100 mM Na2HPO4-citric acid, 60°C, oNPG 1.38-25 mM, free enzyme", "data": [{"protein": "B1", "values": [{"measurement": "Km", "result": 5.14, "unit": "mM"}]}]}
